{"source": "the DeepSol protein solubility set"}
{"experiment": "soluble on expression in E. coli; label from the status in PepcDB or PDB records"}
{"sequence": "MGSDKIHHHHHHMTQLLTKIRRKKIHKGLLLYRLFQQLPVQKNLVLFESFLGRGYSDNPKALYLTLQKQRPELELVWIFAKEPNAAVKAACPNWVLRNSPKYYYLMARAQYWIFNTRQPLSLKKRRETMYLQTWHGTPLKRLGLDMDEVHMPGTNTEQYKKNFSAQAKEWNYLLSPNLYSSAIFKRAFDFRGLLLETGYPRNDLLYAPDRQQQAGQIKQSLRLPPGKKVILYAPTWRDDEFVTKGQYRFNLKLDLKQIQSRLGDDYIVLLRMHYLIAEHLDLTAFDGFAYDVSAYGDIAELYLISDLLITDYSSVFFDYAHLNRPMLFFTYDLEKYASILRGFYFDFEAVVPGPLLKESDQVIDYIEDIATQSKQYEEKYTAFQERFCSLDDGKASQRVVDALFK", "soluble on expression in E. coli": "not soluble"}
{"sequence": "MREFSRPKVVISRCLEFDHCRYNGDMISSPVVVKLKKHVDFLPVCPEVEIGLGVPRNPVRIVLDKGDHRLVQPSSGKDVTEDMKSFCSNFLDSIYEVDGFILKFRSPSCGLKDVKVYPSAGSHGGAVEKISGYFGGAVLGRYPFHPVEDEGRLRNARIKEHFLTKLFTFAAFRKVKSEGSIKDLINFHAQNKFLLMAYNQAELQKLGEIAANREKRPWKELISDYENHLYSALSRAPRYTSTINVLMHALGFFSDQLSSREKALFFDWVQKYREGRASVCPAINMIRSWIVRFEDGYLMSQTFFEPYPEDLIEINPVESHLREDLWK", "soluble on expression in E. coli": "not soluble"}
{"sequence": "MHNQTVRATVFKANAAAPQTKQIYEDDFSELYGEDIIAPPYNIIELKTIAEYSTILQQCIDAYRVNITGFGFDVEYTFDVNASDVDQAKKKRAEKDWARLEAFYKCLHFDESAEMILGYAIEDREKTGNGFMEVLRDGAGKPAGIEYLDVKYMRVCGAGEPVEVSFVYEENGKMKRIKRQKRFRKYVQMINGKKVFFKEYGDPRKMDIRTGEYVNTLAEKYQANEAIHLKIGSGVYGVPRWIGNIVNLYGARKAEELNFMYFKQGRHVPAAITVENGMLSEASYRELQEYMNDLESVENAHKFLLIEAEGIAKEKDLHGGEDITPVSVEIKSLAEILQNDALFLEYDEKSRNKLRSAFRLPPLYTGEAQEYNRATADTARKITEEQVFQPERKTLVNKLNTLLLPELNIHDVRLTLKGPDFRDPLEIAKVLGPFITAGAVSPNDLRDLAGRVLGKTLEEWPEDIYKRPAGQDAEKTNLAALMQELKESIEDIKTS", "soluble on expression in E. coli": "not soluble"}
{"sequence": "MGSDKIHHHHHHVHKSLSNAFEGFSFSGDITTDVLGLLHHHGRQDVAKHVLAVAKTAQRLAPIYDVDSEAAYSAGLLHDISLIFSTSQMLQTALDLGLEPVTAEKRVPYLLHGKLSAAMAEIVFGVKNDSLVHAVSCHTTLCARATTLDKVVFLADKMSWDQEYSPFKPELETALEKSLDEAVGVFLTWTWKQKEKLNSIHPWLIDAWKDYKVGDYA", "soluble on expression in E. coli": "not soluble"}
{"sequence": "MPKNTKKSQGNKKLEMTNKQFDDLLKEMGGLPEGMNLDPELLAVLRQATNAEFNKVAKEKYGDVPEGSDDDEEQQTSEQNKEQQQSSSSKST", "soluble on expression in E. coli": "not soluble"}
{"sequence": "MAPSTEDPDTVVEAQRRGSFSKKKNANGWNKVELVDQCAKQMGSEDKQPGGGDVKTENDPSKNGLGSATSNFIQSSVPPSHQTLSNPLQLSPPAEASVAQQSGASQVFPTFQAALGASSDELLQPNATSSSTSSSASTSSIVPVVKFTNQTAPNGSTVATSVGQNVRLTINGKRVGRPPGTFKRPQNNAANSSNSGNDSDMMGDHDLTCRWKSCNSSFQTLKALVDHVQESHVQSTEQEHHAWRCEWEGCDRNETFKALYMLIVHVRRHTGEKPNKCEYPGCGKEYSRLENLKTHRRTHTGEKPYKCEFADCEKAFSNASDRAKHQNRTHSNLKPYSCQIPQCTKSYTDPSSLRKHIKAVHGDDEYEKAKKSRPANYSNRRRPDHRLAPPTGAMSHPYLATPNSGASVVAHSSVHQQNFINMALAQHHHNAQRAQQLMAATGNVMPMMDPASAAAAAQAQAHHQAQAQMLQTHMMQQAQIQAAAQMQAQVQHQAAMQAHAMQQAQMVLQNNLLGAQSLLSPFSPLLPPSRAPNVMAMLQTPPTPTSVAPMFDIMTSRAPMAPVVSAPTAPAPLVPAPVPASPVFDELREQMREVEPLQQQQQQEPMDQDLQDIRVDGDSDDEDEEEPRTPSGALLLPRGGNNGDGGFGGSGSSRASSGSGTMELSAAPISQNGSRASGSGERGMRSFLIADILQLAADFQNERLLSDVLDLAIFDTRDVRSLHNIYQVYIRAHKAIPITRRPLDWNETHQLHNLYHDPRFNRAEHQDSPAIRDRDTRFWRTIAEANTMRQRQIEPVPLDDDDEGYFDEMVHRVQNGRLNEQFMEGFESDDDDGFEDEDDVPGLGIAVYRGRRRVRREALKQANLDIQEAETAGRNVGGFGDEEDRNNRGHDQDRSFLDHYYPPMVVVVETESPQIVRDQEMMRQFEEAKKNVETDEIKKRAEAMQFGTSSSHHHTKTLLIQRALFDKTSSVRRSLLQFITISVDQEELRQSCHATSAPQGAHVVHNVVDEFDSIMRAQEDSNNRILLSLDIPAPSAVTGVSGSITHADNSALQLQQEQPTSSFSSWFPEDDPIYALPPPPPPPAPPRRRRSADNKDDSENIPKKPRHQF", "soluble on expression in E. coli": "not soluble"}
{"sequence": "GACDNDTEPGGTAVEKMAGDWWVTVNAFIDGKEVEDPFGAGHLQMSTYNTASNSETEMWLDDLGNFWEYKLKVNVNYAARTFSTTGFVDNVTYESKVKITDGKVLEKAATTPSGMPADSIVYMVQFDDDEDGLTYKVSGFRRTGFPADDF", "soluble on expression in E. coli": "soluble"}
{"sequence": "MPVFHTRTIESILEPVAQQISHLVIMHEEGEVDGKAIPDLTAPVAAVQAAVSNLVRVGKETVQTTEDQILKRDMPPAFIKVENACTKLVQAAQMLQSDPYSVPARDYLIDGSRGILSGTSDLLLTFDEAEVRKIIRVCKGILEYLTVAEVVETMEDLVTYTKNLGPGMTKMAKMIDERQQELTHQEHRVMLVNSMNTVKELLPVLISAMKIFVTTKNSKNQGIEEALKNRNFTVEKMSAEINEIIRVLQLTSWDEDAWASKDTEAMKRALASIDSKLNQAKGWLRDPSASPGDAGEQAIRQILDEAGKVGELCAGKERREILGTCKMLGQMTDQVADLRARGQGSSPVAMQKAQQVSQGLDVLTAKVENAARKLEAMTNSKQSIAKKIDAAQNWLADPNGGPEGEEQIRGALAEARKIAELCDDPKERDDILRSLGEISALTSKLADLRRQGKGDSPEARALAKQVATALQNLQTKTNRAVANSRPAKAAVHLEGKIEQAQRWIDNPTVDDRGVGQAAIRGLVAEGHRLANVMMGPYRQDLLAKCDRVDQLTAQLADLAARGEGESPQARALASQLQDSLKDLKARMQEAMTQEVSDVFSDTTTPIKLLAVAATAPPDAPNREEVFDERAANFENHSGKLGATAEKAAAVGTANKSTVEGIQASVKTARELTPQVVSAARILLRNPGNQAAYEHFETMKNQWIDNVEKMTGLVDEAIDTKSLLDASEEAIKKDLDKCKVAMANIQPQMLVAGATSIARRANRILLVAKREVENSEDPKFREAVKAASDELSKTISPMVMDAKAVAGNISDPGLQKSFLDSGYRILGAVAKVREAFQPQEPDFPPPPPDLEQLRLTDELAPPKPPLPEGEVPPPRPPPPEEKDEEFPEQKAGEVINQPMMMAARQLHDEARKWSSKGNDIIAAAKRMALLMAEMSRLVRGGSGTKRALIQCAKDIAKASDEVTRLAKEVAKQCTDKRIRTNLLQVCERIPTISTQLKILSTVKATMLGRTNISDEESEQATEMLVHNAQNLMQSVKETVREAEAASIKIRTDAGFTLRWVRKTPWYQ", "soluble on expression in E. coli": "soluble"}
{"sequence": "MSLESPELKALVDAGKLPAVEKRLPKEPLVLTPLESVGTYGGTWRTATFGGGDSEIERSIGYTRLVRWNPEWTEVIPDIAKSVEVNDNATEYTFTLREGTRWSDGEPFTADDLVWWNENVLRNTKITPAAPNWLTAGGETVKVEKLADDKVIFKFAAPNGLFLMNMATVRGSDILAAAPAHYLKQFHKDFNPDGIDALVKAAGATDWVQLFNNKIGFPGRWRDLGRPTLDAWVLTAPYNGTTQVVGERNPYYAKVDTAGNQLPYFDRITIDVMQDTQAIILKAISGEIDMQNRFIETTDARTVIVQNQEKGGYGLFIARPAWSNALLITLNQTHKNPALRAVFSNKDFRIGLSYAINREELNQLIYAGQAKPYQAAPREGTALYDEKMATQYLEYNVDLANQYLDKAGLTKHDAEGYRLGQDGKRITFAIDALTGSPIQVDALEMIQRYWRAVGIDMQPRPAERSLIFSRLQNNENDGLGWVGGGGYDFLGLLDPKWYFPHEYESSFATAWGLYYQNPKDPNAQEPSPAAKKQMDLYRQVQEAPTLEKQLAAMKELLAITRDEFYVIGTNLEPDRVGIVKTNMRNVPKVIPSTSFYMTPGPAKPETFYYQQEGHHHHHH", "soluble on expression in E. coli": "soluble"}
{"sequence": "MSLVQNNESVFFVECDSYKESPSTSPIRLDDLDGNDAVSDQGLAFDGDVGITSQARVRNPRAQIFEDSNTDVVLHLDDLDMVPLNTKFDMQMEMGSPMAMPAETPPPVEPLKTKDLAYSSLAHLPSYFFEQTHFRIDRKCLLEMSKLRRNYLTISKQDALSCPQLHSRVAGGYLKPVKEKLFGIRHFLDLEESNTVNLLQDGNYMTELFNSQINIPTFKEFREDFEWCLKIIRDRSLSRFSEKRLQYLVNKFPVFQHLHSKEEMRQSKKVPHKDFYNCRKIDLNLLLSGCFSQWQLTEFIWTKLRKEPDRVIHQAFNGSHITLSQLFKVNFEETGQFFNGLKIIDDSFLEWYKVIYLAKYHLVNDEMEIHTGSHGKQLRYYLIAKTFLEFDNYINGEYLAELLKTFLIKPQEESKYQLCQLSVDFQFYLHYDNSDVDNWWMVFANWLNHYNIFSNNIRWNIRISRIYPELYHTGKVKNFQEYLNLIFKPLFNAENYLHKSLGPILLKFLSQVSSIDLCIQDTDNYIWKNFTAVSCLPKDWTSGGDNPTISQYMYYVYVNLTKLNHIRQALHQNTFTLRSSCSPTSMNRTSQFSNTLNFTEHTEAILNNFLLACGGFLNAENLWNAPPSLVYLFYLSQIPMVVAPLNSIVDSKPTMLQEQAPTGLVLEPSKPYKKNPFMKFFEMGFKISLSSESILYNNSYTKEPIIEEYSVAASIYRLHSADLCELLRNSVITSGFSSTLKNKWLGVSLASHDYFVENTGFVDKWYDCKPNTSLEHNVPIIRRQYRSSTLAGEWRLIIAEGHHHHHH", "soluble on expression in E. coli": "not soluble"}
{"sequence": "MLKIIRAGMYTTVQDGGRHGFRQSGISHCGALDMPALRIANLLVGNDANAPALEITLGQLTVEFETDGWFALTGAGCEARLDDNAVWTGWRLPMKAGQRLTLKRPQHGMRSYLAVAGGIDVPPVMGSCSTDLKVGIGGLEGRLLKDGDRLPIGKSKRDSMEAQGVKQLLWGNRIRALPGPEYHEFDRASQDAFWRSPWQLSSQSNRMGYRLQGQILKRTTDRELLSHGLLPGVVQVPHNGQPIVLMNDAQTTGGYPRIACIIEADMYHLAQIPLGQPIHFVQCSLEEALKARQDQQRYFEQLAWRLHNEN", "soluble on expression in E. coli": "soluble"}
{"sequence": "VSGREPSSRIIRVSVKTPQDCHEFFLAENSNVRRFKKQISKYLHCNADRLVLIFTGKILRDQDILSQRGILDGSTVHVVVRSH", "soluble on expression in E. coli": "soluble"}
{"sequence": "MNTTQRADQQTSADRRRRELLEAADRVVLRDGPHASMNAIAAEAGITKPILYRHFGDKGGLYAALAVRHTDALLASLRAALDAPAQRRQRVEATLDTYLAAIEARPQVYRFLMHPAESAGTPGDQSEQGFDVGKHSAPLLRRMGEELAQVIEERLDVGPGTQQLARVWGHGIVGMMHAAGDWWLGERPCPREELVRTLADLLWGRLAEAGDKEGGPGF", "soluble on expression in E. coli": "not soluble"}
{"sequence": "MKLKTNIRHLHGIIRVPGDKSISHRSIIFGSLAEGETKVYDILRGEDVLSTMQVFRDLGVEIEDKDGVITVQGVGMAGLKAPQNALNMGNSGTSIRLISGVLAGADFEVEMFGDDSLSKRPMDRVTLPLKKMGVSISGQTERDLPPLRLKGTKNLRPIHYELPIASAQVKSALMFAALQAKGESVIIEKEYTRNHTEDMLQQFGGHLSVDGKKITVQGPQKLTGQKVVVPGDISSAAFWLVAGLIAPNSRLVLQNVGINETRTGIIDVIRAMGGKLEITEIDPVAKSATLIVESSDLKGTEICGALIPRLIDELPIIALLATQAQGVTVIKDAEELKVKETDRIQVVADALNSMGADITPTADGMIIKGKSALHGARVNTFGDHRIGMMTAIAALLVADGEVELDRAEAINTSYPSFFDDLESLIHG", "soluble on expression in E. coli": "soluble"}
